Target: T1, mouse GANP protein (mouse, UniProt Q9WUU9 1-1971)
T1 construct: Endogenous 210-kD protein in lysates, cytoplasmic and nuclear fractions of WEHI-231 cells and in mouse spleen B cells; The deduced polypeptide has 1971 amino acids; It is phosphorylated at serine/threonine in the in vitro kinase reactions; also called GANP antigen; 29-15 Ag
Experiment: co-immunoprecipitation from WEHI-231 lysate, Western blot with anti-MCM3; in vitro kinase assay and V8 cleavage mapping

T1 sequence (Q9WUU9 other isoform, or with tags, fused parts or gaps limits assumed): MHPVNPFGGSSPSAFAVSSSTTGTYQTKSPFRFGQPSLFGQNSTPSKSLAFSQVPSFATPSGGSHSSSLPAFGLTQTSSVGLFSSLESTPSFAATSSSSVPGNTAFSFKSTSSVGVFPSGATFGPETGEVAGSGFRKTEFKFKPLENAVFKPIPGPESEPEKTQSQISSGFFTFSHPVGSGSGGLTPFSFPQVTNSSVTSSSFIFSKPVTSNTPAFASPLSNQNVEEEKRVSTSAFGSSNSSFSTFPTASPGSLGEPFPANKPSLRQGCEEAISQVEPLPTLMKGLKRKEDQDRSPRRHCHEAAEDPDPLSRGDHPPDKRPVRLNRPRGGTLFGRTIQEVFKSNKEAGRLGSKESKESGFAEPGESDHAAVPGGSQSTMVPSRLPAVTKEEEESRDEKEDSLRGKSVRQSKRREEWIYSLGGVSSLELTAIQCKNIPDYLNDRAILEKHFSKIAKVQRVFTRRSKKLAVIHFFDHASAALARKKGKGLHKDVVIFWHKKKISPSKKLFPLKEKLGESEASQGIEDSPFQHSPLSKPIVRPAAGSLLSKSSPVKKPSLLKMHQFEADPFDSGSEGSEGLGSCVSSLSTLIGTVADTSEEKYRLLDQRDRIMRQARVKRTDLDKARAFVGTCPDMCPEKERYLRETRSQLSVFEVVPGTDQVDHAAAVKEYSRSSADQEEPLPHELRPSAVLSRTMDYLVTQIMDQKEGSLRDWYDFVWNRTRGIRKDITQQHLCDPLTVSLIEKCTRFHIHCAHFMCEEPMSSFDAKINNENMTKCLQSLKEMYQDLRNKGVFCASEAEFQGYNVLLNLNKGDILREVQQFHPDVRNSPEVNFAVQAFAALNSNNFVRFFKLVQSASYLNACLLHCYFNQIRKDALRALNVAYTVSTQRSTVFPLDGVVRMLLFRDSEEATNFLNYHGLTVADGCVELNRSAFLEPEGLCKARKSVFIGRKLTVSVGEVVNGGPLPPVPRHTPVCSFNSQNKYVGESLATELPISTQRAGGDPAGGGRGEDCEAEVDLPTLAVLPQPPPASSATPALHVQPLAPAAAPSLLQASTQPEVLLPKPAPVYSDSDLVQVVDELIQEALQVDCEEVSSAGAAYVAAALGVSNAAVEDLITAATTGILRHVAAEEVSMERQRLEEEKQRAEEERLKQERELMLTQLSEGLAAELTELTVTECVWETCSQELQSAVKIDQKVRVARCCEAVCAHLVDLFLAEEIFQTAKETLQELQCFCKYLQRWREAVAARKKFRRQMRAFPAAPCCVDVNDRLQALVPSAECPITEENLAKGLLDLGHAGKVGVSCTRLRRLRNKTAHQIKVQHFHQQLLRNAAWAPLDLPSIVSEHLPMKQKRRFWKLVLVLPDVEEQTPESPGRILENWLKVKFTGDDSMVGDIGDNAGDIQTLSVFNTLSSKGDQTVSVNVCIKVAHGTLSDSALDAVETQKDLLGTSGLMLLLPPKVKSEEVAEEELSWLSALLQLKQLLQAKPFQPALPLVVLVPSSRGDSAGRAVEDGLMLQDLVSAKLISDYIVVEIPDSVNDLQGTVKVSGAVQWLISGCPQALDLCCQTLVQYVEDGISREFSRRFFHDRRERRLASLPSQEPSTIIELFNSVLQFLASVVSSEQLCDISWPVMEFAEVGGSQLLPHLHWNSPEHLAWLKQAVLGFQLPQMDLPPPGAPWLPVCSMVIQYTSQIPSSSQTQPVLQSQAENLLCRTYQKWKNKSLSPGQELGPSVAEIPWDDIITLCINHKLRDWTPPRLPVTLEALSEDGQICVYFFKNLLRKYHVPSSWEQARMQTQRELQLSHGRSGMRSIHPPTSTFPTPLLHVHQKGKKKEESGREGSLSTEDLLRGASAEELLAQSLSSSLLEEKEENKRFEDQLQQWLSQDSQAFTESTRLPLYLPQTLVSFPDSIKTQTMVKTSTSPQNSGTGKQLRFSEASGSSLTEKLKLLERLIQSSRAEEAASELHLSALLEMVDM

- binding result: binds
B1: MCM3 protein (other, mouse, UniProt P25206 2-812, looked up)
chain: AGTVVLDDVELREAQRDYLDFLDDEEDQGIYQNKVRELISDNQYRLIVSVNDLRRKNEKRANRLLNNAFEELVAFQRALKDFVASIDATYAKQYEEFYIGLEGSFGSKHVSPRTLTSCFLSCVVCVEGIVTKCSLVRPKVVRSVHYCPATKKTIERRYSDLTTLVAFPSSSVYPTKDEENNPLETEYGLSVYKDHQTITIQEMPEKAPAGQLPRSVDVILDDDLVDKVKPGDRIQVVGTYRCLPGKKGCYTSGTFRTVLIACNVKQMSKDIQPAFSADDIAKIKKFSKTRSKDVFEQLARSLAPSIHGHDYVKKAILCLLLGGVERELENGSHIRGDINILLIGDPSVAKSQLLRYVLCTAPRAIPTTGRGSSGVGLTAAVTTDQETGERRLEAGAMVLADRGVVCIDEFDKMSDMDRTAIHEVMEQGRVTIAKAGIHARLNARCSVLAAANPVYGRYDQYKTPMENIGLQDSLLSRFDLLFIMLDQMDPEQDREISDHVLRMHQYRAPGEQDGDALPLGSSVDILATDDPDFTQDDQQDTRIYEKHDSLLHGTKKKKEKMVSAAFMKKYIHVAKIIKPTLTQESAAYIAEEYSRLRSQDSMSSDTARTSPVTARTLETLIRLATAHAKARMSKTVDLQDAEEAVELVQYAYFKKVLEKEKKRKKASEDESDLEDEEEKSQEDTEQKRKRRKTHAKDGESYDPYDFSEAETQMPQVHTPKTDDSQEKTDDSQETQDSQKVELSEPRLKAFKAALLEVFQEAHEQSVGMLHLTESINRNREEPFSSEEIQACLSRMQDDNQVMVSEGIVFLI
notes: also called MCM3/P1

From patent US20040229309A1 (KUMAMOTO TECHNOLOGY AND INDUSTRY FOUNDATION, published 2004)
